Results: paper PMC6029366

Biological target: M1R-TEV-tTA fusion protein

Substance: β-arrestin-TEV protease (from UniProt P32121 1-409) (natural protein)
- TANGO β-arrestin recruitment assay, luciferase reporter (RLU), HTLA cells treated with the muscarinic agonist carbachol: 7.4 fold
